± gives the standard deviation of the averaged measurements.
Assay: total protein half-life in vivo (active degradation + dilution); higher = more stable protein
[1] = E. coli NCM3722 delta-hslV, growth: N-lim chemostat, doubling time 6 h
[2] = wild type E. coli NCM3722, growth: N-lim chemostat, doubling time 6 h
[3] = wild type E. coli NCM3722, growth: N-lim chemostat, doubling time 12 h
[4] = wild type E. coli NCM3722, growth: P-lim chemostat, doubling time 12 h
[5] = E. coli NCM3722 delta-clpP delta-lon delta-hslV, growth: N-lim chemostat, doubling time 6 h
[6] = E. coli NCM3722 delta-lon, growth: N-lim chemostat, doubling time 6 h
[7] = E. coli NCM3722 delta-smpB, growth: N-lim chemostat, doubling time 6 h
[8] = E. coli NCM3722 delta-clpP, growth: N-lim chemostat, doubling time 6 h
[9] = wild type E. coli NCM3722, growth: C-lim chemostat, doubling time 3 h
[10] = wild type E. coli NCM3722, growth: C-lim chemostat, doubling time 6 h
[11] = wild type E. coli NCM3722, growth: C-lim chemostat, doubling time 12 h
[12] = wild type E. coli NCM3722, growth: P-lim chemostat, doubling time 6 h

Sequence | total protein half-life in vivo [1] [h] | total protein half-life in vivo [2] [h] | total protein half-life in vivo [3] [h] | total protein half-life in vivo [4] [h] | total protein half-life in vivo [5] [h] | total protein half-life in vivo [6] [h] | total protein half-life in vivo [7] [h] | total protein half-life in vivo [8] [h] | total protein half-life in vivo [9] [h] | total protein half-life in vivo [10] [h] | total protein half-life in vivo [11] [h] | total protein half-life in vivo [12] [h]
MLLAGAIFVLTIVLVIWQPKGLGIGWSATLGAVLALVTGVVHPGDIPVVWNIVWNATAAFIAVIIISLLLDESGFFEWAALHVSRWGNGRGRLLFTWIVLLGAAVAALFANDGAALILTPIVIAMLLALGFSKGTTLAFVMAAGFIADTASLPLIVSNLVNIVSADFFGLGFREYASVMVPVDIAAIVATLVMLHLYFRKDIPQNYDMALLKSPAEAIKDPATFKTGWVVLLLLLVGFFVLEPLGIPVSAIAAVGALILFVVAKRGHAINTGKVLRGAPWQIVIFSLGMYLVVYGLRNAGLTEYLSGVLNVLADNGLWAATLGTGFLTAFLSSIMNNMPTVLVGALSIDGSTASGVIKEAMVYANVIGCDLGPKITPIGSLATLLWLHVLSQKNMTISWGYYFRTGIIMTLPVLFVTLAALALRLSFTL [P0AB93] | 6.25 | 5.83 | 12.1 | 13.8 ± 1.1 | – | – | – | – | – | – | – | –
MLLSIITVAFRNLEGIVKTHASLAHLAQVEDISFEWIVVDGGSNDGTREYLENLNGIFNLRFVSEPDNGIYDAMNKGIAMAQGKFALFLNSGDIFHQNAANFVRKLKMQKDNVMITGDALLDFGDGHKIKRSAKPGWYIYHSLPASHQAIFFPVSGLKKWRYDLEYKVSSDYALAAKMYKAGYAFKKLNGLVSEFSMGGVSTTNNMELCADAKKVQRQILHVPGFWAELSWHLRQRTTSKTKALYNKV | – | – | – | – | 4.85 ± 0.28 | 1.5 ± 0.23 | 0.818 ± 0.0095 | – | – | – | – | –
MLMLFLTVAMVHIVALMSPGPDFFFVSQTAVSRSRKEAMMGVLGITCGVMVWAGIALLGLHLIIEKMAWLHTLIMVGGGLYLCWMGYQMLRGALKKEAVSAPAPQVELAKSGRSFLKGLLTNLANPKAIIYFGSVFSLFVGDNVGTTARWGIFALIIVETLAWFTVVASLFALPQMRRGYQRLAKWIDGFAGALFAGFGIHLIISR [P0AG38] | 0.979 | 1.13 | – | 2.22 ± 0.65 | – | 0.822 | 1.13 ± 0.1 | 1.14 | – | – | – | –
MLNAWHLPVPPFVKQSKDQLLITLWLTGEDPPQRIMLRTEHDNEEMSVPMHKQRSQPQPGVTAWRAAIDLSSGQPRRRYSFKLLWHDRQRWFTPQGFSRMPPARLEQFAVDVPDIGPQWAADQIFYQIFPDRFARSLPREAEQDHVYYHHAAGQEIILRDWDEPVTAQAGGSTFYGGDLDGISEKLPYLKKLGVTALYLNPVFKAPSVHKYDTEDYRHVDPQFGGDGALLRLRHNTQQLGMRLVLDGVFNHSGDSHAWFDRHNRGTGGACHNPESPWRDWYSFSDDGTALDWLGYASLPKLDYQSESLVNEIYRGEDSIVRHWLKAPWNMDGWRLDVVHMLGEAGGARNNMQHVAGITEAAKETQPEAYIVGEHFGDARQWLQADVEDAAMNYRGFTFPLWGFLANTDISYDPQQIDAQTCMAWMDNYRAGLSHQQQLRMFNQLDSHDTARFKTLLGRDIARLPLAVVWLFTWPGVPCIYYGDEVGLDGKNDPFCRKPFPWQVEKQDTALFALYQRMIALRKKSQALRHGGCQVLYAEDNVVVFVRVLNQQRVLVAINRGEACEVVLPASPFLNAVQWQCKEGHGQLTDGILALPAISATVWMN | 2.49 ± 0.11 | 2.18 | 3.45 ± 0.98 | 7.49 ± 0.34 | 6.31 ± 0.59 | 2.59 ± 0.38 | 2.28 ± 0.031 | 6.88 ± 1.2 | 2.48 ± 0.074 | 3.86 ± 0.075 | 6.87 ± 1.4 | 5 ± 0.27
MLNERQLKIVDLLEQQPRTPGELAQQTGVSGRTILRDIDYLNFTLNGKARIFASGSAGYQLEIFERRSFFQLLQKHDNDDRLLALLLLNTFTPRAQLASALNLPETWVAERLPRLKQRYERTCCLASRPGLGHFIDETEEKRVILLANLLRKDPFLIPLAGITRDNLQHLSTACDNQHRWPLMQGDYLSSLILAIYALRNQLTDEWPQYPGDEIKQIVEHSGLFLGDNAVRTLTGLIEKQHQQAQVISADNVQGLLQRVPGIASLNIIDAQLVENITGHLLRCLAAPVWIAEHRQSSMNNLKAAWPAAFDMSLHFITLLREQLDIPLFDSDLIGLYFACALERHQNERQPIILLSDQNAIATINQLAIERDVLNCRVIIARSLSELVAIREEIEPLLIINNSHYLLDDAVNNYITVKNIITAAGIEQIKHFLATAFIRQQPERFFSAPGSFHYSNVRGESWQHITRQICAQLVAQHHITADEAQRIIAREGEGENLIVNRLAIPHCWSEQERRFRGFFITLAQPVEVNNEVINHVLIACAAADARHELKIFSYLASILCQHPAEIIAGLTGYEAFMELLHKG | – | – | – | – | 6.57 | – | – | – | – | – | – | –
MLNIVLYEPEIPPNTGNIIRLCANTGFRLHIIEPMGFAWDDKRLRRAGLDYHEFTAVTRHHDYRAFLEAENPQRLFALTTKGTPAHSAVSYQDGDYLMFGPETRGLPASILDALPAEQKIRIPMVPDSRSMNLSNAVSVVVYEAWRQLGYPGAVLRD [P0AGJ7] | 5.83 ± 0.49 | 5.23 | 8.21 ± 0.38 | 11.9 ± 0.24 | 5.27 ± 0.13 | 5.54 ± 0.16 | 4.82 ± 0.33 | – | 2.91 ± 0.35 | 6.26 | 13.8 ± 2.8 | 5.93 ± 0.22
MLNKLSLLLKDAGISLTDHQKNQLIAYVNMLHKWNKAYNLTSVRDPNEMLVRHILDSIVVAPYLQGERFIDVGTGPGLPGIPLSIVRPEAHFTLLDSLGKRVRFLRQVQHELKLENIEPVQSRVEEFPSEPPFDGVISRAFASLNDMVSWCHHLPGEQGRFYALKGQMPEDEIALLPEEYQVESVVKLQVPALDGERHLVVIKANKI [P0A6U5] | – | 5.09 ± 0.33 | 8.45 ± 0.31 | 13.1 ± 2 | 5.85 ± 1.7 | 5.33 ± 0.68 | 4.48 ± 0.18 | 4.636 ± 0.041 | 3.51 ± 0.68 | – | 10.5 ± 1.6 | 5.87 ± 0.69
MLNLFVGLDIYTGLLLLLALAFVLFYEAINGFHDTANAVAAVIYTRAMQPQLAVVMAAFFNFFGVLLGGLSVAYAIVHMLPTDLLLNMGSTHGLAMVFSMLLAAIIWNLGTWFFGLPASSSHTLIGAIIGIGLTNALLTGSSVMDALNLREVTKIFSSLIVSPIVGLVIAGGLIFLLRRYWSGTKKRDRIHRIPEDRKKKKGKRKPPFWTRIALIVSAAGVAFSHGANDGQKGIGLVMLVLVGIAPAGFVVNMNASGYEITRTRDAVTNFEHYLQQHPELPQKLIAMEPPLPAASTDGTQVTEFHCHPANTFDAIARVKTMLPGNMESYEPLSVSQRSQLRRIMLCISDTSAKLAKLPGVSKEDQNLLKKLRSDMLSTIEYAPVWIIMAVALALGIGTMIGWRRVAMTIGEKIGKRGMTYAQGMAAQMTAAVSIGLASYIGMPVSTTHVLSSAVAGTMVVDGGGLQRKTVTSILMAWVFTLPAAIFLSGGLYWIALQLI | – | 6.47 | – | 13.1 | 6.37 | – | 5.61 ± 0.43 | 5.68 | – | – | – | 6.03 ± 0.27

From the supplement of paper PMC11246515
